Measured values from patent US20260184782A1.

Biological target: human TIGIT-Fc (human) (UniProt Q495A1)
Assay: CD155 competition ELISA, single point

Chain of human TIGIT-Fc (human) (Q495A1 22-141 limits assumed): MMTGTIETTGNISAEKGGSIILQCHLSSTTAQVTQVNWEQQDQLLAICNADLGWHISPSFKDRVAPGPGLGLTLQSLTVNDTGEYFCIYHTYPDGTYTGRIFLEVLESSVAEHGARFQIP

- OD (450 nm): 0.8 OD
B1: TIGIT-SC153 (Fc fusion)
VHH: EVQLVESGGGLVQPGGSLRLSCAASGNTFSGGFMGWFRQAPGKEREWVASVLRGGYTWYADSVKGRFTISADNSKNTAYLQMNSLKPEDTAVYYCARAGGCSGTSCYDGWFDPWGQGTLVTVSS
